This is an account of results in PMC4240654 (2014).

For the assay, the target named is Factor IXa (Homo sapiens, UniProt P00740). Description: FXa generation assay.

Broadly, the Kd is the constant that tells how readily two partners part at equilibrium. A higher Kd goes with a looser complex.

Factor IXa, sequence (P00740 47-191): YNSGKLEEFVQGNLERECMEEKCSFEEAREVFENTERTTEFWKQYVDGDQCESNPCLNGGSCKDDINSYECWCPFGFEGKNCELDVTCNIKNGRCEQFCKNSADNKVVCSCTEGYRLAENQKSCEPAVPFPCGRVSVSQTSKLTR

B1: BDD rFVIIIa (ReFacto) (protein)
chain 1: ATRRYYLGAVELSWDYMQSDLGELPVDARFPPRVPKSFPFNTSVVYKKTLFVEFTDHLFNIAKPRPPWMGLLGPTIQAEVYDTVVITLKNMASHPVSLHAVGVSYWKASEGAEYDDQTSQREKEDDKVFPGGSHTYVWQVLKENGPMASDPLCLTYSYLSHVDLVKDLNSGLIGALLVCREGSLAKEKTQTLHKFILLFAVFDEGKSWHSETKNSLMQDRDAASARAWPKMHTVNGYVNRSLPGLIGCHRKSVYWHVIGMGTTPEVHSIFLEGHTFLVRNHRQASLEISPITFLTAQTLLMDLGQFLLFCHISSHQHDGMEAYVKVDSCPEEPQLRMKNNEEAEDYDDDLTDSEMDVVRFDDDNSPSFIQIRSVAKKHPKTWVHYIAAEEEDWDYAPLVLAPDDRSYKSQYLNNGPQRIGRKYKKVRFMAYTDETFKTREAIQHESGILGPLLYGEVGDTLLIIFKNQASRPYNIYPHGITDVRPLYSRRLPKGVKHLKDFPILPGEIFKYKWTVTVEDGPTKSDPRCLTRYYSSFVNMERDLASGLIGPLLICYKESVDQRGNQIMSDKRNVILFSVFDENRSWYLTENIQRFLPNPAGVQLEDPEFQASNIMHSINGYVFDSLQLSVCLHEVAYWYILSIGAQTDFLSVFFSGYTFKHKMVYEDTLTLFPFSGETVFMSMENPGLWILGCHNSDFRNRGMTALLKVSSCDKNTGDYYEDSYEDISAYLLSKNNAIEPR
chain 2: SFQKKTRHYFIAAVERLWDYGMSSSPHVLRNRAQSGSVPQFKKVVFQEFTDGSFTQPLYRGELNEHLGLLGPYIRAEVEDNIMVTFRNQASRPYSFYSSLISYEEDQRQGAEPRKNFVKPNETKTYFWKVQHHMAPTKDEFDCKAWAYFSDVDLEKDVHSGLIGPLLVCHTNTLNPAHGRQVTVQEFALFFTIFDETKSWYFTENMERNCRAPCNIQMEDPTFKENYRFHAINGYIMDTLPGLVMAQDQRIRWYLLSMGSNENIHSIHFSGHVFTVRKKEEYKMALYNLYPGVFETVEMLPSKAGIWRVECLIGEHLHAGMSTLFLVYSNKCQTPLGMASGHIRDFQITASGQYGQWAPKLARLHYSGSINAWSTKEPFSWIKVDLLAPMIIHGIKTQGARQKFSSLYISQFIIMYSLDGKKWQTYRGNSTGTLMVFFGNVDSSGIKHNIFNPPIIARYIRLHPTHYSIRSTLRMELMGCDLNSCSMPLGMESKAISDAQITASSYFTNMFATWSPSKARLHLQGRSNAWRPQVNNPKEWLQVDFQKTMKVTGVTTQGVKSLLTSMYVKEFLISSSQDGHQWTLFFQNGKVKVFQGNQDSFTPVVNSLDPPLLTRYLRIHPQSWVHQIALRMEVLGCEAQDLY
modifications: B-domain deleted, thrombin-activated
On to B1, for which the Kd worked out at 4.5 nM.

B2: SC rFVIIIFc (thrombin-activated) (protein)
chain 1: B1 chain 1
chain 2: B1 chain 2
modifications: single-chain Fc fusion, thrombin-activated
B2 registered a dissociation constant (Kd) of 4.1 nM.

B3: rFVIIIFc (thrombin-activated) (protein)
chain 1: B1 chain 1
chain 2: B1 chain 2
modifications: Fc fusion, thrombin-activated
For B3, the affinity, expressed as Kd, was 5.5 nM.
